Data: patent US20200255508A1
Substitutions are numbered along the chain they refer to. Read-outs that look alike come from different tables or passages of the source. Each block holds one binder with its values, some of them ahead of it.

Tests used:
[1] = target: cynomolgus monkey DLL4 extracellular domain (cynomolgus monkey); assay: Biacore SPR
[2] = target: cyno DLL4-his (cynomolgus monkey); assay: ELISA on DLL4-his
[3] = target: cynomolgus monkey DLL4 extracellular domain (cynomolgus monkey); assay: capture ELISA
[4] = target: cynomolgus monkey DLL4 extracellular domain (cynomolgus monkey); assay: competition ELISA, competitor huNotch-1
[5] = target: cynomolgus monkey DLL4 extracellular domain (cynomolgus monkey); assay: Biacore SPR; remark: listed apart in the source
[6] = target: cyno DLL4-his (cynomolgus monkey); assay: ELISA on DLL4-his; remark: listed apart in the source

EC50 [3]: 0.44 nM | Kd [1]: 7.8 nM | koff [1]: 0.00015 s⁻¹ | kon [1]: 19000 M⁻¹ s⁻¹ | IC50 [4]: 5.1 nM
B6: A10 (antibody, IgG1, V domains shown)
VH: EVQLLESGGGLVKSGGSLRLSCAASGFTFRSHWMSWVRQAPGKGLEWVAIISYDGSNKYSADSVKGRFTISRDNSKNTLYLQLNSLRAEDTAVYYCAKAGGGNVGFDIWGQGTMVTVSS
VL: LPVLTQPPSVSVSPGQTASITCSADKLGTKYVSWYQQKPGQSPVLVIYQDAKRPSGIPERFSGSNSGNTATLTISGTQTMDEADYLCQSWDRSDVVFGGGTKVTVL

EC50 [3]: 0.44 nM | Kd [1]: 0.49 nM | koff [1]: 3.79e-05 s⁻¹ | kon [1]: 77500 M⁻¹ s⁻¹ | IC50 [4]: 2 nM
B11: E9.71 (antibody, V domains shown)
VH: EVQLQESGPGLVKPSETLSLTCTVSGGSISSSSYYWGWIRQPPGKGLEWIGDIYYTGSTYYNPSLKSRVTISVDTSKNQFSLKLSSVTAADTAVYYCARQALAMGGGSDKWGQGTLVTVSS
VL: SYELTQPPSVSVSPGQTASITCSGQRLGDKYASWYQQKPGQSPVLVIYEDSKRPSGIPERFSGSNSGDTATLTISGTQPMDEADYYCQAWDRDTGVFGYGTKVTVL

Kd [1]: 0.63 nM | koff [1]: 4.95e-05 s⁻¹ | kon [1]: 79200 M⁻¹ s⁻¹
B12: E9.13 (antibody, V domains shown)
VH: B11 VH with Q100E, A101D, L102V, A103I, M104L, G105R, K110Y
VL: B11 VL with Q25D, R26T, A32V, K52E, R92S, D93E, Y99S

Kd [1]: 6.26 nM | koff [1]: 0.000352 s⁻¹ | kon [1]: 56200 M⁻¹ s⁻¹
B13: E9.22 (antibody, V domains shown)
VH: EVQLQESGPGLVKPSETLSLTCTVSGGSISNSRYHWGWIRQPPGKGLEWIGDIYYTGSTYYNPSLKGRVTISVDTSKNQFSLKLSSVTAADTAVYYCAREDVILRGGSDYWGQGTLVTVSS
VL: B11 VL

Kd [1]: 1.52 nM | koff [1]: 3.79e-05 s⁻¹ | kon [1]: 24900 M⁻¹ s⁻¹
B16: E9.16 (antibody, V domains shown)
VH: B13 VH with N31S, R33S, H35Y, G67S
VL: B11 VL with Q25E, A32V, S51F

Kd [1]: 0.16 nM | koff [1]: 1.23e-05 s⁻¹ | kon [1]: 75100 M⁻¹ s⁻¹
B17: E9.17 (antibody, V domains shown)
VH: B11 VH with Q100E, A101E, L102A, A103I, M104L, K110Y
VL: B11 VL

Kd [1]: 4.71 nM | koff [1]: 7.91e-05 s⁻¹ | kon [1]: 16800 M⁻¹ s⁻¹
B18: E9.48 (antibody, V domains shown)
VH: B13 VH with N31S, R33G, H35Y, Y54N, T56R, G67S
VL: B11 VL

Kd [1]: 1 nM | koff [1]: 2.63e-05 s⁻¹ | kon [1]: 26300 M⁻¹ s⁻¹
B19: E9.18 (antibody, V domains shown)
VH: B13 VH with N31S, R33G, H35Y, Y54N, T56A, G67S
VL: B11 VL

Kd [1]: 1.44 nM | koff [1]: 3.47e-05 s⁻¹ | kon [1]: 24200 M⁻¹ s⁻¹
B21: E9.38 (antibody, V domains shown)
VH: B13 VH with N31S, R33S, H35Y, G67S
VL: B11 VL with A32V, T94V, Y99S

Kd [1]: 6.75 nM | koff [1]: 0.000386 s⁻¹ | kon [1]: 57200 M⁻¹ s⁻¹
B22: E9.14 (antibody, V domains shown)
VH: B13 VH with P42S, G67S, A90E
VL: B11 VL

EC50 [3]: 0.45 nM | IC50 [4]: 2.2 nM
B23: E9.2B (antibody, V domains shown)
VH: B11 VH with S33N, Y54N, T56N, S58N, Q100E, L102V, M104L, S108A, K110D
VL: B11 VL with Q25E, R26G, A32V, K52T, R92S, D93E, Y99S

Kd [1]: 12.9 nM | koff [1]: 0.000414 s⁻¹ | kon [1]: 32100 M⁻¹ s⁻¹
B24: E9.65 (antibody, V domains shown)
VH: B13 VH with S30R
VL: B11 VL

Kd [1]: 0.14 nM | koff [1]: 9.1e-06 s⁻¹ | kon [1]: 65500 M⁻¹ s⁻¹
B25: E9.66 (antibody, V domains shown)
VH: B11 VH with Q100E, A101G, L102V, A103P, M104L, S108A
VL: B11 VL

Kd [1]: 0.25 nM | koff [1]: 3.44e-05 s⁻¹ | kon [1]: 137000 M⁻¹ s⁻¹
B26: E9.4 (antibody, V domains shown)
VH: B11 VH with Q100Y, A101D, L102V, A103S, M104L, G107S, K110H
VL: B11 VL

EC50 [3]: 0.46 nM | Kd [1]: 0.25 nM | koff [1]: 4.86e-05 s⁻¹ | kon [1]: 192000 M⁻¹ s⁻¹ | IC50 [4]: 1.5 nM
B27: E9.19 (antibody, V domains shown)
VH: B11 VH with Q100F, A101D, L102V, A103S, M104L, K110T
VL: B11 VL

Kd [1]: 0.17 nM | koff [1]: 8.9e-06 s⁻¹ | kon [1]: 53100 M⁻¹ s⁻¹
B28: E9.11 (antibody, V domains shown)
VH: B11 VH with Q100E, L102V, A103P, M104L, K110Y
VL: B11 VL

More lines, now with the values behind:

B1: E9-SE7 (antibody, V domains shown)
VH: EVQLVESGGGLVQPGGSLRLSCAVSGGSISSSSYYWGWIRQAPGKGLEWIGDIYYTGSTYYNPSLKSRVTISVDTSKNSFYLQMNSLRAEDTAVYYCAREDVILRGGSDYWGQGTLVTVSS
VL: EYVLTQSPDFQSVTPKEKVTITCSGQRLGDKYASWYQQKPDQSPKLVIYEDSKRPSGVPSRFSGSNSGDDATLTINSLEAEDAATYYCQAWDRDTGVFGQGTKVEIKR
Kd [1]: 7.53 nM | EC50 [2]: 0.12 nM

B2: E9-SE1 (antibody, V domains shown)
VH: B1 VH
VL: LYVLTQPPSVSVSPGQTASITCSGQRLGDKYASWYQQKPGQSPVLVIYEDSKRPSGIPERFSGSNSGDTATLTISGTQTMDEADYLCQAWDRDTGVFGGGTKVTVLG
Kd [1]: 5.42 nM | EC50 [2]: 0.14 nM

B3: E9-SE5 (antibody, V domains shown)
VH: B13 VH with N31S, R33S, H35Y, G67S
VL: B1 VL
Kd [1]: 6.7 nM | EC50 [2]: 0.13 nM

B4: E9-SE8 (antibody, V domains shown)
VH: B13 VH with S15G, N31S, R33S, H35Y, P42A, G67S, S81Y, T88R, A90E
VL: B1 VL
Kd [1]: 3.41 nM | EC50 [2]: 0.14 nM

B5: E9-SE2 (antibody, V domains shown)
VH: B1 VH
VL: B2 VL with L1S, V3E, T79P, L86Y, G99Y, K102R
Kd [1]: 3.68 nM | EC50 [2]: 0.14 nM

B7: E9-FR1 (antibody, V domains shown)
VH: EVQLVQSGTEVKKPGESLKISCKVSGGSISSSSYYWGWIRQMPGKGLEWIGDIYYTGSTYYNPSLKSQVTISVDTSFNTFFLQWSSLKASDTAMYYCAREDVILRGGSDYWGQGTMVTVSS
VL: EYVLTQSPATLSVSPGERATLSCSGQRLGDKYASWYQQKPGQSPRLVIYEDSKRPSDIPARFSGSNSGDEATLTISSLQSEDFAVYYCQAWDRDTGVFGQGTRLEIKR
Kd [5]: 0.74 nM | EC50 [6]: 0.12 nM

B8: E9-FR2 (antibody, V domains shown)
VH: EVTLRESGPALVKPTQTLTLTCTVSGGSISSSSYYWGWIRQPPGKGLEWIGDIYYTGSTYYNPSLKSRVTISVDTSKNQFVLTMTNMDPVDTATYYCAREDVILRGGSDYWGQGTTVTVSS
VL: DYVLTQSPDSLAVSLGERATINCSGQRLGDKYASWYQQKPGQSPKLVIYEDSKRPSGIPDRFSGSNSGDDATLTISSLQAEDVAVYYCQAWDRDTGVFGGGTKVEIKR
Kd [5]: 0.3 nM | EC50 [6]: 0.12 nM

B9: E9.1 (antibody, human IgG1, V domains shown)
VH: B13 VH with N31S, R33S, H35Y, G67S
VL: B2 VL with L1S, V3E, T79P, L86Y, G99Y, K102R
Kd [5]: 0.47 nM | Kd [1]: 4.08 nM | EC50 [2]: 0.24 nM | EC50 [6]: 0.035 nM

B10: E9-SE6 (antibody, V domains shown)
VH: B13 VH with S15G, N31S, R33S, H35Y, P42A, G67S, S81Y, T88R, A90E
VL: B2 VL
Kd [1]: 6.55 nM | EC50 [2]: 0.13 nM

B14: E9 (antibody, IgG1, V domains shown)
VH: B13 VH with N31S, R33S, H35Y, G67S
VL: B11 VL with K102R
EC50 [3]: 0.4 nM | Kd [1]: 4.2 nM | koff [1]: 7.4e-05 s⁻¹ | kon [1]: 18000 M⁻¹ s⁻¹ | IC50 [4]: 2.1 nM

B15: E9-SE3 (antibody, V domains shown)
VH: B13 VH with S15G, N31S, R33S, H35Y, P42A, G67S, S81Y, T88R, A90E
VL: B2 VL with L1S, V3E, T79P, L86Y, G99Y, K102R
Kd [1]: 3.42 nM | EC50 [2]: 0.14 nM

B20: E9-SE4 (antibody, V domains shown)
VH: B13 VH with N31S, R33S, H35Y, G67S
VL: B2 VL
Kd [1]: 3.92 nM | EC50 [2]: 0.14 nM
